Laboratory results as given in the supplement of paper PMC12764529.
± gives the half width of the 95% confidence interval.

Assays:
[1] = folding stability dG unfold from chymotrypsin proteolysis; higher = more stable
Procedure, shortened: (§1)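 Only designs with AlphaFold2 dimer inter-PAE above 15 were retained; each was a mini-protein under 80 residues with no cysteine, in a PA-tagged cDNA display construct. After digestion with trypsin and chymotrypsin and sequencing, K50 was inferred by Bayesian fitting of counts, and unfolding free energy was derived per protease or combined against a sequence-predicted unfolded-state K50 and a shared folded-state K50.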

[2] = folding stability dG unfold (combined trypsin and chymotrypsin); higher = more stable
Procedure, shortened: as §1

[3] = folding stability dG unfold from trypsin proteolysis; higher = more stable
Procedure, shortened: as §1

| Sequence | folding stability dG unfold [1] [kcal/mol] | folding stability dG unfold [2] [kcal/mol] | folding stability dG unfold [3] [kcal/mol] |
| --- | --- | --- | --- |
| SALRPDIPFDAVEKVVIPARHPLLGGVVEAGVYRLKDSDAVLVVVTFPDGSKLVFLVRPDDVLDVLDAISAG [r14_240_TrMRF] | 2.969 ± 0.01 | 2.75 ± 0.045 | 2.38 ± 0.066 |
| SAGGSASMSNVTSYVTVYKKPGVDDLYYKVRILAPSEPKVIEIPESEIPKYEKEGIKIEKVSEELLSAGGSA [r15_783_JUSTAS] | 1.96 ± 0.32 | 1.28 ± 0.34 | 0.901 ± 0.36 |
| SAGMIEITVEVPAEDMTEEELKELAEELARALREAGLPEDVKIVDVRVERLPDGTVRVTIKIEVKPPPSAGG [r19_87_TrROS_Hall] | 3.59 ± 0.44 | 4.36 ± 0.39 | 4.24 ± 0.26 |
| SAGGSAGGSAVVSVSPDGYLRLAYYPETGELRELPPDVSVEEFLEAFPDVVVLAAPVAPTPESAGGSAGGSA [r18_53_TrMRF] | 1.65 ± 0.029 | 1.41 ± 0.048 | 0.961 ± 0.016 |
| SAGGSAGGSAGPSYIAVVEFENGERPVYLFPPNTGKLEDIVEELKKKFPSLKKITIYPAPSAGGSAGGSAGG [r11_311_TrMRF] | 3.01 ± 0.16 | 3.33 ± 0.087 | 3.58 ± 0.17 |
| SAGGSAGGSAGMRTITIPIPDGDPENIEEQARELADAFPDLKGKKVNIEYHKDGWITITVSAGGSAGGSAGG [r17_324_TrROS] | 1.19 ± 0.1 | 1.15 ± 0.18 | 0.694 ± 0.15 |
| SAGGSAGGSAGMSVSLTSTTVSLPPELLSPEEAARTEDAVVTTTTSTLPAVVDPATGTVTSAGGSAGGSAGG [r17_310_JUSTAS] | 0.518 ± 0.043 | 1.39 ± 0.092 | 1.92 ± 0.057 |
| SAGLKVKIVKAEVKNGYLTLEVEVTGKDGSKKPFKIKIKLKPVPKPKPVFKFTKLPNGEIKVEVFDPSSAGG [r19_172_TrMRF] | 3.212 ± 0.03 | 3.04 ± 0.08 | 2.76 ± 0.062 |
| SAGGSDYYIRVRIRIYKPTPEDMQEGKPIPEVEIWFPFDSVEEIKEFLENLPPNIKVDVDWFPPEDSAGGSA [r2_25_TrROS] | 4.21 ± 0.11 | 3.89 ± 0.14 | 3.35 ± 0.073 |
| SAMSVTISFDPKGPGGTLTITADPNSPQIEKFINELKKKLNLDIKSYTKTILPNGTVKVTLTYSKINLPSAG [r14_655_JUSTAS] | 4.657 ± 0.028 | 4.51 ± 0.083 | 4.05 ± 0.11 |
| SAGGSAGGSAMDAEEIADMIKEILRKQFPNVKITEITVERRPPGNYYVEARVPDGNQRTIPISAGGSAGGSA [r18_423_TrROS] | 0.286 ± 0.059 | 0.115 ± 0.061 | -0.483 ± 0.15 |
| SAIKIEEIKDVNPENKNIRIKIEMPGGPHEIPIPAKSEMDVEEALDLILDWFERHFPPGHKMRIEEIEISAG [r14_422_TrROS] | -0.0828 ± 0.13 | 0.341 ± 0.1 | 0.886 ± 0.091 |
| SAGGSAVRIKVWPPNGKEQWIPIPSSMTPSTVQEMAENLADDWQEQNGNKNVKVEVDPDNGWIRIRSAGGSA [r15_33_TrROS] | 0.197 ± 0.084 | -0.0158 ± 0.066 | -1.02 ± 0.3 |
| SAGGSAMIEIEIVKPNASPEEAEKLEKEVREKLLEEGVPEEVVKEVNIKVIVKPVKKDKNNNPILESAGGSA [r15_684_JUSTAS] | 0.977 ± 0.19 | 0.811 ± 0.2 | -0.215 ± 0.15 |
| SAGGSAGGSAGGGVAFSSDTTETRIDTTDDDTIVITTTTYAPNPSSTTTTVTTVPPDVPLSAGGSAGGSAGG [r7_128_JUSTAS] | 0.0059 ± 0.23 | 0.75 ± 0.14 | 1.24 ± 0.044 |
| SAGGGSMKTIELTVTNPATGETVTVTLELDPSVSEEEVEARIKETEEAVEKELLAPEPPLAPTPARASAGGS [r16_191_JUSTAS] | 1.22 ± 0.023 | 0.765 ± 0.062 | -0.465 ± 0.096 |
| SMPGSITVEIEVEEEEDPERGGRRIKKLLIKKVTYKDEKGNSSDEVANEIKNALKEKLEKEGKPAEIELTSA [r9_261_JUSTAS] | 1.11 ± 0.23 | 1.27 ± 0.37 | 1.35 ± 0.081 |
| SPFIMIRIDIERKNGKEVEMMFPVPANNIKNNLRDHLGPGYKVKITDIEPIDPEQFPPGQMIKIRYRVKPSA [r9_803_TrROS] | 1.71 ± 0.13 | 1.79 ± 0.18 | 1.73 ± 0.048 |
| SAGGWFTWDIPVKADDPKEAVDYAKEQIKNIMREHHPGMPPGMKIDDIKVEPPPNGWYWVKITIEIDPPSAG [r5_320_TrROS] | 2.59 ± 0.083 | 2.29 ± 0.15 | 1.83 ± 0.083 |
| SAGGKKKIKIIEKKKINGKTILKIEVDGKKIIIIKTPNKVYIFVIDKNGKKKVIEMSPEEALKKLIEKSAGG [r13_98_TrROS_Hall] | 3.95 ± 0.042 | 3.59 ± 0.13 | 2.08 ± 0.075 |
| SAGGSAMTLEDLKDEFVVITLPDGTVVKAKVEEVDTKGPVLTILVGGKPILIPADAPVKIEIEPPKSAGGSA [r15_355_JUSTAS] | 1.36 ± 0.033 | 1.53 ± 0.043 | 1.74 ± 0.063 |

| Sequence | folding stability dG unfold [1] [kcal/mol] | folding stability dG unfold [2] [kcal/mol] | folding stability dG unfold [3] [kcal/mol] |
| --- | --- | --- | --- |
| SAGWYIKVEVYYGGKKHTFMIPRKQAKELRKKYPPGDEIPIPFNGRDVEIRVQVIPPPPPSPEDAADNKSAG [r5_669_TrROS] | 2.75 ± 0.12 | 2.44 ± 0.17 | 1.83 ± 0.047 |
| SAGMKPGETITIVLPDGTKIEIKILENGEVEIVKIEKKEDGTYKITIRVKVNGKEIEKEITLPPGAKILSAG [r5_394_TrROS_Hall] | 2.04 ± 0.12 | 2.16 ± 0.27 | 2.52 ± 0.11 |
| SAGGPLEVTLVESETTFLPEGKVVTREVTRLPDDTILVTTYTTTIDPNSGTTTTTSETVVLPAGAALSAGGS [r16_639_JUSTAS] | 0.627 ± 0.068 | 1.49 ± 0.032 | 2.11 ± 0.046 |
| SAGGSAGGSAGKQPIEMWFMFPNGVAIVLRIKVDPPSPKAKIDAIEVVPVRDPDNGKWRFSAGGSAGGSAGG [r11_919_TrROS] | 1.85 ± 0.1 | 1.38 ± 0.14 | 0.566 ± 0.11 |
| SAGGSAGGSAGGEPEVKVELRVELDEDGRLRVTLKVEFEDGTVERELELEAPVVFFPPEESAGGSAGGSAGG [r7_992_TrROS_Hall] | 2.07 ± 0.093 | 2.49 ± 0.16 | 2.73 ± 0.18 |
| SAGGGLLEELARELGFEAEIEEIPETGILRITLRPEDGSEVEITVKVTRIPGLGEVKLEVLEVKVRPTSAGG [r13_936_TrMRF] | 3.31 ± 0.052 | 3.33 ± 0.2 | 3.15 ± 0.16 |
| SAGGSAGGNTITVFMPYSQARELAEELRDEGITVDIQPYPDWMFITVEIKVPKIDPEDNPDNKDSAGGSAGG [r6_392_TrROS] | 1.3 ± 0.074 | 1.35 ± 0.089 | 1.43 ± 0.047 |
| SAGGSWRVSVQFPDGKKIKIPEEPIQKIIQEYGIPPDPGDPERMVERIANRIADKYGYPVKNIEIDSAGGSA [r2_83_TrROS] | 0.385 ± 0.13 | 0.0663 ± 0.15 | -0.377 ± 0.42 |
| SAGGSAGGSAGGMLTAVFTTPGNVRRLVPFSSEEEARALAEAEGVEVEFLDPAEAARLLSAGGSAGGSAGGS [r10_66_JUSTAS] | -0.497 ± 0.25 | -0.476 ± 0.14 | -0.569 ± 0.17 |
| SAGGSAMNPKLEALPEVEITEEKTEEYKTAENKKLLVKEYKSNAEPGKTYKVIYDPETGKVLSVEESAGGSA [r15_66_JUSTAS] | 1.1 ± 0.11 | 0.737 ± 0.1 | 0.0954 ± 0.059 |
| SAGGSAGGSAGGDPLPVTFTIPLEDDTTAKAVLSGDLVEVTIPNGKKYVLIPNPAVLGSSAGGSAGGSAGGS [r10_1176_TrMRF] | -0.232 ± 0.22 | -0.216 ± 0.15 | -0.144 ± 0.11 |
| SAGGSMEEEFAARGATVTIDPEKGVITVTFYEEVTQPDGTPVLRRKGTLTIEVPGNDPSQALAKALEESAGG [r13_924_JUSTAS] | 2.1 ± 0.088 | 1.96 ± 0.12 | 1.41 ± 0.032 |
| SAGGSAGGSAGMITIERIPGSGKLVITITDPGSGKVLTIPFDNADPKEALAKAKELLKKLSAGGSAGGSAGG [r17_386_JUSTAS] | 3.19 ± 0.048 | 3.25 ± 0.075 | 3.25 ± 0.071 |
| SAGGSAGGSAGMEYSIDKASGKILIKIPDEDKTWILYDPKTGEKYIFKQIGGKWYKVEKVSAGGSAGGSAGG [r11_1036_TrMRF] | 1.87 ± 0.14 | 1.91 ± 0.26 | 1.57 ± 0.058 |
| MFKPGTKVTFGDKTVEVPEGDELYIFEGKVFGTSEVEAVLENMSDDAVGYKLVVEDETGKIVKVEEFVFKPS [r1_304_TrMRF] | -0.172 ± 0.51 | -0.406 ± 0.43 | -0.451 ± 0.25 |
| SAGGLDPDGKIRWQPITITIEIPIPPGDEELANKIADWLRDLGIEVEIKRNPNGYIQITVEFWVLVIDSAGG [r13_702_TrROS] | 5.03 ± 0.29 | 4.89 ± 0.31 | 3.82 ± 0.33 |
| SAGGSAGGSKEPIRVDEFEWRKNKDGMDMVQVTFPNNGKDIHLPPEHLDNLEPGDEIPLDDLISAGGSAGGS [r20_3_TrROS] | 0.192 ± 0.17 | -0.138 ± 0.2 | -0.677 ± 0.12 |
| GMTVTHTAEAGGRPLTITVTRSPDGWEVTVTDPDGTPIFSKTIPSDKNATLTLTDSAGNPLVTVNITLPPES [r1_34_JUSTAS] | 3.8 ± 0.046 | 3.91 ± 0.051 | 4.15 ± 0.11 |
| SAGGSAGGSAGGKDPYLALKTVRVRLVRDYLLGDKPVKTELIEEADVPVLIVFEPEELLSAGGSAGGSAGGS [r10_492_TrMRF] | 0.536 ± 0.086 | 0.441 ± 0.053 | 0.0714 ± 0.069 |
| SAGGGMTPVKKEYVVTLPVPPGMTEEEARELAERAAEELRPELEAKGLAYEVTFELSPEGLVTVTVVASAGG [r13_529_JUSTAS] | 2.41 ± 0.025 | 2.31 ± 0.034 | 2.19 ± 0.042 |
| SAGGSAGGSSGMVKAEFGLVAPDGTPVSTRTLTFSSEEEIEEALAALPEFSLALVPDVKRGPLSAGGSAGGS [r12_182_JUSTAS] | 0.86 ± 0.13 | 0.51 ± 0.14 | -0.586 ± 0.38 |
